Measured values published in patent US20260365734 (published 2026).
Substitutions are numbered along the chain they refer to. Each block holds one binder with its values, some of them ahead of it.

Experiments:
human VEGFA = biological target: T1, human VEGFA (human, UniProt P15692); test: BLI
T1 chain: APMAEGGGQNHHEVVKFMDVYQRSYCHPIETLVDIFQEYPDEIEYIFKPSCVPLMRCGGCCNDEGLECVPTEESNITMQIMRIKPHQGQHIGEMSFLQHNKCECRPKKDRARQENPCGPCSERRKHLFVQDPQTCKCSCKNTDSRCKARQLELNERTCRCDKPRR

[1] = biological target: T2, human PD-L1 (cell surface) (human, UniProt Q9NZQ7); test: FACS, T24 cells
T2 sequence (Q9NZQ7 19-238): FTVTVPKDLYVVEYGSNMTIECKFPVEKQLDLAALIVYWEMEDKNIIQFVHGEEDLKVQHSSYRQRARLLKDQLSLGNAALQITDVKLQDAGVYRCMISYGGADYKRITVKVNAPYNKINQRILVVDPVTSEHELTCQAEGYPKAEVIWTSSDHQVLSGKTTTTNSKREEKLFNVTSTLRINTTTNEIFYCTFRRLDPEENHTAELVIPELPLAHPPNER

human PD-L1 ECD = human PD-L1 ECD (human, UniProt Q9NZQ7); test: BLI
Sequence of human PD-L1 ECD (Q9NZQ7 19-238): as above

[2] = biological target: T2, human PD-L1 (cell surface); test: FACS
[3] = biological target: T2, human PD-L1 (cell surface); test: FACS, T24 cells; remark: listed apart in the source
[4] = biological target: T2, human PD-L1 (cell surface); test: FACS; remark: listed apart in the source
[5] = biological target: T2, human PD-L1 (cell surface); test: FACS; remark: listed apart in the source
[6] = biological target: mouse PD-L1 (cell surface) (mouse, UniProt Q9EP73); test: FACS, Hepa1-6 cells
Sequence of mouse PD-L1 (cell surface) (Q9EP73 19-238): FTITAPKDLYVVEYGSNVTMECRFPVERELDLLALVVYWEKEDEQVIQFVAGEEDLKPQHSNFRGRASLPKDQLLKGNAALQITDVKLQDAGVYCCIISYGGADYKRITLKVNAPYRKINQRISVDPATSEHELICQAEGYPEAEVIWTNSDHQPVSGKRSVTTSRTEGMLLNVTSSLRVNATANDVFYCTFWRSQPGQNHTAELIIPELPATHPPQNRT

Kd (human VEGFA): 14.4 nM
B1: 1G1 (antibody, V domains shown)
VH: QVQLVESGGGVVQPGRSLRLSCAASGLSFSYGTMAWVRQAPGKELELVAALSAGGTITYYADSVKGRFTISRDNSKNTLYLQMNSLRAEDTAVYYCAALGGYSGGSKYPYYDYWGQGTLVTVSS

Kd (human VEGFA): 2.61 nM
B2: 1C8 (antibody, V domains shown)
VH: QVQLVESGGGVVQPGRSLRLSCAASGRSFSRYAMAWVRQAPGKERESVAVIGSGGGRTYYADSVKGRFTISRDNSKNTLYLQMNSLRAEDTAVYYCAARIYRVVGSGTYPAGYDYWGQGTLVTVSS

binding result [1]: no binding
B3: Avastin (antibody, V domains shown)
VH: EVQLVESGGGLVQPGGSLRLSCAASGYTFTNYGMNWVRQAPGKGLEWVGWINTYTGEPTYAADFKRRFTFSLDTSKSTAYLQMNSLRAEDTAVYYCAKYPHYYGSSHWYFDVWGQGTLVTVSS
VL: DIQMTQSPSSLSASVGDRVTITCSASQDISNYLNWYQQKPGKAPKVLIYFTSSLHSGVPSRFSGSGSGTDFTLTISSLQPEDFATYYCQQYSTVPWTFGQGTKVEIK

Kd (human PD-L1 ECD): 1.2 nM | EC50 [2]: 0.815 nM
B4: R3-3H1 (antibody, V domains shown)
VH: QLQLVESGGGVVQPGGSLRLSCAASGIDFSDTHMGWYRQAPGKQRELVAIITSGGSTDYVDSVKGRFTISRDNAKNTVYLQMNSLKFEDTAVYYCNARRSTIYWGQGTQVTVSS

EC50 [2]: 0.148 nM | EC50 [3]: 0.05 nM
B5: R2-4E2 (antibody, V domains shown)
VH: EVQLVESGGGSVQDGGSLTLSCAASGFSAGDVVMAWYRQAPGKQREFVANIAASSTTRYTDSVKGRFTISRDNAKNTVYLQMNSLKSEDTAVYYCNALVWNGSSYNNWGQGTQVTVSS

Kd (human PD-L1 ECD): 5.01 nM | EC50 [2]: 0.24 nM | EC50 [4]: 0.22 nM | EC50 [3]: 0.078 nM
B6: R2-5C12 (antibody, V domains shown)
VH: QVQLVESGGGLVQAGGSLRLSCAASGFSASDVVMAWYRQAPGKQREFVANIAARGSTDYANSVKGRFTISRDNAKNTVYLQMNSLKSDDTAVYYCNALVWNGSSYNNWGQGTQVTVSS

EC50 [2]: 0.202 nM | EC50 [3]: 0.041 nM
B7: R2-4D2 (antibody, V domains shown)
VH: B5 VH with E1Q, S11L, D14A, T19R, G30S, I51L, A52G, T60A, N73D, Y79S

Kd (human PD-L1 ECD): 2.04 nM | EC50 [2]: 0.22 nM | EC50 [3]: 0.059 nM
B8: R2-1F4 (antibody, V domains shown)
VH: B5 VH with E1Q, S11L, D14A, T19R, G30S, T60A, N73D, Y79S

EC50 [5]: 0.69 nM | binding result [6]: no binding
B9: 5F8-hv8 (antibody, V domains shown)
VH: EVQLVESGGGLVQPGGSLRLSCAASGFDFSDTHMSWVRQAPGKERELVAIITSGGSTDYVDSVKGRFTISRDNSKNTLYLQMNSLRAEDTAVYYCNARRTTIYWGQGTQVTVSS

Kd (human PD-L1 ECD): 0.054 nM | EC50 [2]: 0.53 nM | EC50 [3]: 0.503 nM
B10: R3-5F8 (antibody, V domains shown)
VH: B9 VH with A23V, S35G, V37Y, S74A, L78V, R86K, A87F

Kd (human VEGFA): 2.82 nM
B11: 4B11 (antibody, V domains shown)
VH: QVQLVESGGGVVQPGRSLRLSCAASGLSFSQYEMHWVRQAPGKEREFVAAISSSGISTYYADSVKGRFTISRDNSKNTLYLQMNSLRAEDTAVYYCAAELVDYHRWGYDYWGQGTLVTVSS

Kd (human VEGFA): 2.08 nM
B12: 7H3 (antibody, V domains shown)
VH: QVQLVESGGGVVQPGRSLRLSCAASGFTFGPYAMHWVRQAPGKERELVAAIWPSGSITYYADSVKGRFTISRDNSKNTLYLQMNSLRAEDTAVYYCAFGSPTGSITYWGQGTLVTVSS
